Experimental data published in US11141452 (dated 2021).
Non-standard residues stand in square brackets, D forms with d. No end group written: not given here. *: point of attachment. NH(3,5-(CF3)2-benzyl) = FC(F)(F)c1cc(CN*)cc(C(F)(F)F)c1; NMePhe(4-F) = CN[C@@H](Cc1ccc(F)cc1)C(=O)O; Phe(4-F) = N[C@@H](Cc1ccc(F)cc1)C(=O)O; Dmt = Cc1cc(O)cc(C)c1C[C@H](N)C(=O)O; NMeF = CN[C@@H](Cc1ccccc1)C(=O)O; NHBn = c1ccc(CN*)cc1

T1: rat NK1 receptor (rat, UniProt P14600)
T1 chain: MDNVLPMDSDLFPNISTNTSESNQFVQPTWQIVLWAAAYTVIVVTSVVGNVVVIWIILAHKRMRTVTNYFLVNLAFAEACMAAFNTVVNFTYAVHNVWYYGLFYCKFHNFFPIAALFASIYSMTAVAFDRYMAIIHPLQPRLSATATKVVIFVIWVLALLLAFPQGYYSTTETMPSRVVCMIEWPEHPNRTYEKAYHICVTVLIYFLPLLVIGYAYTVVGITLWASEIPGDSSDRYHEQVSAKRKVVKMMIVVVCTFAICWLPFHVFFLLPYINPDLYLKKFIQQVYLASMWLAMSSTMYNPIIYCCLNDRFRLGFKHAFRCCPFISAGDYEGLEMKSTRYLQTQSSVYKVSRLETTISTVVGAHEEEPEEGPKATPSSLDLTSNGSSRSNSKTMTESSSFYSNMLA

T2: delta opioid receptor (DOR) (UniProt P41143)
T2 chain: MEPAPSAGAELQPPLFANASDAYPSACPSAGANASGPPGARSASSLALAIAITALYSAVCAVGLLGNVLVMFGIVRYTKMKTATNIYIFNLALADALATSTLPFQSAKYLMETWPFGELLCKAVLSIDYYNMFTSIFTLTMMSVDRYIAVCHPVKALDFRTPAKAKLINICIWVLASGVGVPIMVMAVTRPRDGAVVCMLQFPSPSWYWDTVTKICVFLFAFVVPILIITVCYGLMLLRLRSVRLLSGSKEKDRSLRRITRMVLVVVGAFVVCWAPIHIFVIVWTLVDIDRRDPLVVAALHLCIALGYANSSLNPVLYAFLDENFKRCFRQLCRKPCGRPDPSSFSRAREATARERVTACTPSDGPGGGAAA

T3: human NK1 receptor (human, UniProt P25103)
T3 chain: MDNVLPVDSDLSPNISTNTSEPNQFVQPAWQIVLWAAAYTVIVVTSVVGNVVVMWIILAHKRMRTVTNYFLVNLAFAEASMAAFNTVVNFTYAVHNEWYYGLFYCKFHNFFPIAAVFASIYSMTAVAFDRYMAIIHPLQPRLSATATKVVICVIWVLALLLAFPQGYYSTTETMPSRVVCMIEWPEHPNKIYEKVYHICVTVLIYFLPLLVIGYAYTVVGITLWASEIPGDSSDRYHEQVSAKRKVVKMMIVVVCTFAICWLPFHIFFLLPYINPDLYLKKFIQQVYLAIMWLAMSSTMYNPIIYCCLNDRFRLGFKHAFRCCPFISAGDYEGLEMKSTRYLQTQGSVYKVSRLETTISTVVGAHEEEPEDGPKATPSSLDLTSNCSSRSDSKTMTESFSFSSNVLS


What follows are binders tested against mu opioid receptor (MOR) (UniProt P35372) (assay: competition).
Chain of mu opioid receptor (MOR) (P35372 whole entry): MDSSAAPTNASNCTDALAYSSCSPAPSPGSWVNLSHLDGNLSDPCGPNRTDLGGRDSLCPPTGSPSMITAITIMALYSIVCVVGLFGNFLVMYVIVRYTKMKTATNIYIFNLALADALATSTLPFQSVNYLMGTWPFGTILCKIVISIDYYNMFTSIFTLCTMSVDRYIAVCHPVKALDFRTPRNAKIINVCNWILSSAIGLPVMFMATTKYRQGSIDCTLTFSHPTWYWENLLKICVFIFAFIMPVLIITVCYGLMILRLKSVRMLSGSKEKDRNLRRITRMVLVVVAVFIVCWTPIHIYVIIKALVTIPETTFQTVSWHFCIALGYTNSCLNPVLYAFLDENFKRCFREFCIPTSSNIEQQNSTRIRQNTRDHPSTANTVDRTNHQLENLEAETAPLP

Binder	Ki [nM]
Y[dA]G[NMeF]PLW-{NH(3,5-(CF3)2-benzyl)} [AKG117]	27
XAGFPLW (Dmt1, D-Ala2, Phe(4-F)4; C-terminal NH-Bn(3',5'-(CF3)2)) [AKG127]	1
XAGFPLW (Dmt1, D-Ala2; C-terminal NH-Bn(3',5'-(CF3)2)) [AKG116]	3

Target: T1, rat NK1 receptor
Assay: competition

Binder	Ki [nM]
[Dmt][dA]FGYPLW (not fully specified (C-terminus)) [AKG118]	25.4

Target: T2, delta opioid receptor (DOR)
Assay: competition

Binder	Ki [nM]
[Dmt][dA]FGYPLW (not fully specified (C-terminus)) [AKG118]	3

Target: T1, rat NK1 receptor
Assay: competition
Remark: another data set of the same source

Binder	Ki [nM]
Y[dA]GF[dQ]PLW (not fully specified (C-terminus)) [AKG103]	106
Y[dA]G[NMePhe(4-F)]QPLW-NHBn [AKG143]	21.7
Y[dA]GFQPLW (not fully specified (C-terminus)) [AKG105]	12.5
Y[dA]GFNPLW (not fully specified (C-terminus)) [AKG104]	20.2
Y[dA]GF[dN]PLW-NHBn [AKG102]	133

Target: T2, delta opioid receptor (DOR)
Assay: competition
Remark: another data set of the same source

Binder	Ki [nM]
Y[dA]G[NMeF]PLW-{NH(3,5-(CF3)2-benzyl)} [AKG117]	237
XAGFPLW (Dmt1, D-Ala2, Phe(4-F)4; C-terminal NH-Bn(3',5'-(CF3)2)) [AKG127]	1
XAGFPLW (Dmt1, D-Ala2; C-terminal NH-Bn(3',5'-(CF3)2)) [AKG116]	1

Target: mu opioid receptor (MOR) (UniProt P35372)
Assay: competition
Remark: another data set of the same source

Binder	Ki [nM]
Y[dA]GF[dQ]PLW (not fully specified (C-terminus)) [AKG103]	116
Y[dA]G[Phe(4-F)]QPLW-NHBn [AKG142]	8
Y[dA]G[NMePhe(4-F)]QPLW-NHBn [AKG143]	2
Y[dA]GFQPLW (not fully specified (C-terminus)) [AKG105]	38
Y[dA]GFNPLW (not fully specified (C-terminus)) [AKG104]	51
Y[dA]G[NMeF]QPLW (not fully specified (C-terminus)) [AKG129]	7
Y[dA]GF[dN]PLW-NHBn [AKG102]	90

Target: T1, rat NK1 receptor
Assay: competition
Remark: another data set of the same source

Binder	Ki [nM]
YPFFPLW [AKG222]	32.4
YPFFPLW [AKG226]	31.7
YPFFPLW [AKG224]	33.7

Target: T3, human NK1 receptor
Assay: competition

Binder	Ki [nM]
Y[dA]GF[dQ]PLW (not fully specified (C-terminus)) [AKG103]	2.71
Y[dA]G[Phe(4-F)]QPLW-NHBn [AKG142]	5.71
Y[dA]G[NMePhe(4-F)]QPLW-NHBn [AKG143]	3.2
Y[dA]GFQPLW (not fully specified (C-terminus)) [AKG105]	0.92
Y[dA]GFNPLW (not fully specified (C-terminus)) [AKG104]	1.16
Y[dA]G[NMeF]QPLW (not fully specified (C-terminus)) [AKG129]	0.83
Y[dA]GF[dN]PLW-NHBn [AKG102]	2.26

Target: T3, human NK1 receptor
Assay: competition
Remark: another data set of the same source

Binder	Ki [nM]
Y[dA]G[NMeF]PLW-{NH(3,5-(CF3)2-benzyl)} [AKG117]	3.35
XAGFPLW (Dmt1, D-Ala2, Phe(4-F)4; C-terminal NH-Bn(3',5'-(CF3)2)) [AKG127]	0.88
XAGFPLW (Dmt1, D-Ala2; C-terminal NH-Bn(3',5'-(CF3)2)) [AKG116]	1.4

Target: mu opioid receptor (MOR) (UniProt P35372)
Assay: competition
Remark: another data set of the same source

Binder	Ki [nM]
[Dmt][dA]FGYPLW (not fully specified (C-terminus)) [AKG118]	1

Target: T3, human NK1 receptor
Assay: competition
Remark: another data set of the same source

Binder	Ki [nM]
[Dmt][dA]FGYPLW (not fully specified (C-terminus)) [AKG118]	2.34

Target: T2, delta opioid receptor (DOR)
Assay: competition
Remark: another data set of the same source

Binder	Ki [nM]
Y[dA]G[Phe(4-F)]QPLW-NHBn [AKG142]	2
Y[dA]G[NMePhe(4-F)]QPLW-NHBn [AKG143]	0.7
Y[dA]GFQPLW (not fully specified (C-terminus)) [AKG105]	9
Y[dA]GFNPLW (not fully specified (C-terminus)) [AKG104]	17
Y[dA]G[NMeF]QPLW (not fully specified (C-terminus)) [AKG129]	1
Y[dA]GF[dN]PLW-NHBn [AKG102]	54

Target: T1, rat NK1 receptor
Assay: competition
Remark: another data set of the same source

Binder	Ki [nM]
Y[dA]G[NMeF]PLW-{NH(3,5-(CF3)2-benzyl)} [AKG117]	61.1
XAGFPLW (Dmt1, D-Ala2, Phe(4-F)4; C-terminal NH-Bn(3',5'-(CF3)2)) [AKG127]	29.4
XAGFPLW (Dmt1, D-Ala2; C-terminal NH-Bn(3',5'-(CF3)2)) [AKG116]	26.9

Target: T3, human NK1 receptor
Assay: competition
Remark: another data set of the same source

Binder	Ki [nM]
YPFFPLW [AKG222]	4.19
YPFFPLW [AKG226]	5.9
YPFFPLW [AKG224]	3.39
